Results from the supplement of paper PMC11780869.

Tested on: Bacillus subtilis
Assay: cleaved RNA product abundance (RNA/gDNA barcode ratio) relative to median wild-type variant (ratio to wild type); higher = more accumulation of the downstream cleavage product
Settings: cleavage site: cggR-gapA (positions -7 to +36 mutated)
Protocol: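 MPRA in B. subtilis. Mutagenized RNase Y cleavage-site regions (9% mutation rate) were inserted into a barcoded reporter mRNA (truncated aprE or tetM). Cells were grown in LB at 37°C to OD600 0.3. The cleaved RNA isoform was gel-purified and its barcodes counted; the RNA:gDNA barcode ratio was normalised to the median wild-type variant, and the median over barcodes is reported per variant. The printed sequence is the variable window only; the reporter flanks are not printed.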

[1] = experiment (reporter, strain, medium): exp 2b: truncated aprE reporter, strain BJT200
[2] = experiment (reporter, strain, medium): exp 4a: truncated aprE reporter, strain BJT201 with 2% xylose (RNase J1 expressed)

Sequence	cleaved RNA product abundance [1]	cleaved RNA product abundance [2]	cleaved RNA product abundance (experiment (reporter, strain, medium): exp 6: tetM reporter, strain 168)
ACAGACGAAGGAGCCGCAAAGAAGTTAATAAGGAATGAATAATCCCTCAATATAAATATCTCTCACTTATTTAAA	0.103	0.165	
ACAGACGAAGGAGCCGCAAAGAAGTTAATAAGGCATGAATAATCCCTCAATATAAATATCTCTCACTTATTTAAA	0.0718	0.104	
ACAGACGAAGGAGCCGCAAAGAAGTTAATAAGGGAAGAATAATCCCTCAATATAAATATCTCTCACTTATTTAAA	0.135	0.17	
ACAGACGAAGGAGCCGCAAAGAAGTTAATAAGGGACGAATAATCCCTCAATATAAATATCTCTCACTTATTTAAA	0.154	0.164	
ACAGACGAAGGAGCCGCAAAGAAGTTAATAAGGGATAAATAATCCCTCAATATAAATATCTCTCACTTATTTAAA	0.253	0.382	
ACAGACGAAGGAGCCGCAAAGAAGTTAATAAGGGATCAATAATCCCTCAATATAAATATCTCTCACTTATTTAAA	0.282	0.316	
ACAGACGAAGGAGCCGCAAAGAAGTTAATAAGGGATGAAAAATCCCTCAATATAAATATCTCTCACTTATTTAAA		0.293	
ACAGACGAAGGAGCCGCAAAGAAGTTAATAAGGGATGAACAATCCCTCAATATAAATATCTCTCACTTATTTAAA	0.251		
ACAGACGAAGGAGCCGCAAAGAAGTTAATAAGGGATGAAGAATCCCTCAATATAAATATCTCTCACTTATTTAAA		0.278	
ACAGACGAAGGAGCCGCAAAGAAGTTAATAAGGGATGAATAAACCCTCAATATAAATATCTCTCACTTATTTAAA	0.167	0.177	
ACAGACGAAGGAGCCGCAAAGAAGTTAATAAGGGATGAATAACCCCTCAATATAAATATCTCTCACTTATTTAAA		0.192	
ACAGACGAAGGAGCCGCAAAGAAGTTAATAAGGGATGAATAAGCCCTCAATATAAATATCTCTCACTTATTTAAA		0.197	
ACAGACGAAGGAGCCGCAAAGAAGTTAATAAGGGATGAATAATACCTCAATATAAATATCTCTCACTTATTTAAA	0.0994	0.144	
ACAGACGAAGGAGCCGCAAAGAAGTTAATAAGGGATGAATAATCACTCAATATAAATATCTCTCACTTATTTAAA	0.112	0.109	
ACAGACGAAGGAGCCGCAAAGAAGTTAATAAGGGATGAATAATCCATCAATATAAATATCTCTCACTTATTTAAA	0.166	0.224	
ACAGACGAAGGAGCCGCAAAGAAGTTAATAAGGGATGAATAATCCCACAATATAAATATCTCTCACTTATTTAAA	0.17	0.253	
ACAGACGAAGGAGCCGCAAAGAAGTTAATAAGGGATGAATAATCCCGCAATATAAATATCTCTCACTTATTTAAA	0.0984		
ACAGACGAAGGAGCCGCAAAGAAGTTAATAAGGGATGAATAATCCCTAAATATAAATATCTCTCACTTATTTAAA		0.306	
ACAGACGAAGGAGCCGCAAAGAAGTTAATAAGGGATGAATAATCCCTCAAAATAAATATCTCTCACTTATTTAAA		0.25	

Sequence	cleaved RNA product abundance [1]	cleaved RNA product abundance [2]	cleaved RNA product abundance (experiment (reporter, strain, medium): exp 6: tetM reporter, strain 168)
ACAGACGAAGGAGCCGCAAAGAAGTTAATAAGGGATGAATAATCCCTCAACATAAATATCTCTCACTTATTTAAA		0.342	
ACAGACGAAGGAGCCGCAAAGAAGTTAATAAGGGATGAATAATCCCTCAATACAAATATCTCTCACTTATTTAAA	0.0847		
ACAGACGAAGGAGCCGCAAAGAAGTTAATAAGGGATGAATAATCCCTCAATATAAAAATCTCTCACTTATTTAAA		0.278	
ACAGACGAAGGAGCCGCAAAGAAGTTAATAAGGGATGAATAATCCCTCAATATAAACATCTCTCACTTATTTAAA		0.338	
ACAGACGAAGGAGCCGCAAAGAAGTTAATAAGGGATGAATAATCCCTCAATATAAAGATCTCTCACTTATTTAAA	0.182		
ACAGACGAAGGAGCCGCAAAGAAGTTAATAAGGGATGAATAATCCCTCAATATAAATACCTCTCACTTATTTAAA		0.201	
ACAGACGAAGGAGCCGCAAAGAAGTTAATAAGGGATGAATAATCCCTCAATATAAATAGCTCTCACTTATTTAAA		0.293	
ACAGACGAAGGAGCCGCAAAGAAGTTAATAAGGGATGAATAATCCCTCAATATAAATATCTCTCACTTATTTAAA	0.264	0.349	0.555
ACAGACGAAGGAGCCGCAAAGAAGTTAATAAGGGATGAATAATCCCTCAATATAAATCTCTCTCACTTATTTAAA		0.218	
ACAGACGAAGGAGCCGCAAAGAAGTTAATAAGGGATGAATAATCCCTCAATATAAATGTCTCTCACTTATTTAAA		0.303	
ACAGACGAAGGAGCCGCAAAGAAGTTAATAAGGGATGAATAATCCCTCAATATACATATCTCTCACTTATTTAAA		0.313	
ACAGACGAAGGAGCCGCAAAGAAGTTAATAAGGGATGAATAATCCCTCACTATAAATATCTCTCACTTATTTAAA		0.263	
ACAGACGAAGGAGCCGCAAAGAAGTTAATAAGGGATGAATAATCCCTCATTATAAATATCTCTCACTTATTTAAA		0.794	
ACAGACGAAGGAGCCGCAAAGAAGTTAATAAGGGATGAATAATCCCTCTATATAAATATCTCTCACTTATTTAAA		0.39	
ACAGACGAAGGAGCCGCAAAGAAGTTAATAAGGGATGAATAATCCCTGAATATAAATATCTCTCACTTATTTAAA		0.533	
ACAGACGAAGGAGCCGCAAAGAAGTTAATAAGGGATGAATAATCCCTTAATATAAATATCTCTCACTTATTTAAA	0.572	0.519	
ACAGACGAAGGAGCCGCAAAGAAGTTAATAAGGGATGAATAATCCGTCAATATAAATATCTCTCACTTATTTAAA	0.177		
ACAGACGAAGGAGCCGCAAAGAAGTTAATAAGGGATGAATAATCCTTCAATATAAATATCTCTCACTTATTTAAA	0.185	0.237	
ACAGACGAAGGAGCCGCAAAGAAGTTAATAAGGGATGAATAATCGCTCAATATAAATATCTCTCACTTATTTAAA		0.0788	

Sequence	cleaved RNA product abundance [1]	cleaved RNA product abundance [2]	cleaved RNA product abundance (experiment (reporter, strain, medium): exp 6: tetM reporter, strain 168)
ACAGACGAAGGAGCCGCAAAGAAGTTAATAAGGGATGAATAATCTCTCAATATAAATATCTCTCACTTATTTAAA	0.195	0.292	
ACAGACGAAGGAGCCGCAAAGAAGTTAATAAGGGATGAATAATGCCTCAATATAAATATCTCTCACTTATTTAAA	0.121	0.124	
ACAGACGAAGGAGCCGCAAAGAAGTTAATAAGGGATGAATAATTCCTCAATATAAATATCTCTCACTTATTTAAA	0.178	0.198	
ACAGACGAAGGAGCCGCAAAGAAGTTAATAAGGGATGAATAGTCCCTCAATATAAATATCTCTCACTTATTTAAA		0.263	
ACAGACGAAGGAGCCGCAAAGAAGTTAATAAGGGATGAATATTCCCTCAATATAAATATCTCTCACTTATTTAAA	0.246	0.279	
ACAGACGAAGGAGCCGCAAAGAAGTTAATAAGGGATGAATCATCCCTCAATATAAATATCTCTCACTTATTTAAA	0.188	0.314	
ACAGACGAAGGAGCCGCAAAGAAGTTAATAAGGGATGAATGATCCCTCAATATAAATATCTCTCACTTATTTAAA		0.284	
ACAGACGAAGGAGCCGCAAAGAAGTTAATAAGGGATGAATTATCCCTCAATATAAATATCTCTCACTTATTTAAA		0.339	
ACAGACGAAGGAGCCGCAAAGAAGTTAATAAGGGATGACTAATCCCTCAATATAAATATCTCTCACTTATTTAAA		0.308	
ACAGACGAAGGAGCCGCAAAGAAGTTAATAAGGGATGCATAATCCCTCAATATAAATATCTCTCACTTATTTAAA		0.301	
ACAGACGAAGGAGCCGCAAAGAAGTTAATAAGGGATGTATAATCCCTCAATATAAATATCTCTCACTTATTTAAA		0.322	
ACAGACGAAGGAGCCGCAAAGAAGTTAATAAGGGATTAATAATCCCTCAATATAAATATCTCTCACTTATTTAAA	0.218	0.313	
ACAGACGAAGGAGCCGCAAAGAAGTTAATAAGGTATGAATAATCCCTCAATATAAATATCTCTCACTTATTTAAA	0.0951	0.15	
ACAGACGAAGGAGCCGCAAAGAAGTTAATAAGTGATGAATAATCCCTCAATATAAATATCTCTCACTTATTTAAA	0.167	0.129	
ACAGACGAAGGAGCCGCAAAGAAGTTAATAATGGATGAATAATCCCTCAATATAAATATCTCTCACTTATTTAAA	0.104	0.137	
ACAGACGAAGGAGCCGCAAAGAAGTTAATAGGGGATGAATAATCCCTCAATATAAATATCTCTCACTTATTTAAA		0.292	
ACAGACGAAGGAGCCGCAAAGAAGTTACAAAGGGATGAATAATCCCACAATATAAATATCTCTCACTTATTTAAA		0.157	
ACAGACGAAGGAGCCGCAAAGAAGTTACAAAGGGATGAATAATCCCTCAATATAAATATCTCTCACTTATTTAAA		0.257	
ACAGACGAAGGAGCCGCAAAGAAGTTACTAAAGGATGAATAATCCCTCAATATAAATATCTCTCACTTATTTAAA	0.0999	0.171	
